The values that follow come from patent US20250108119A1, “NOVEL STEROID PAYLOADS, STEROID LINKERS, ADCs CONTAINING AND USE THEREOF” (IMMUNEXT, INC., priority 2021, published 2025).

Entries after “also recorded” stand apart in the source; their conditions may differ.

Data set [1] addresses T1, human VISTA on cells (human, UniProt Q9H7M9 33-311).
T1 sequence: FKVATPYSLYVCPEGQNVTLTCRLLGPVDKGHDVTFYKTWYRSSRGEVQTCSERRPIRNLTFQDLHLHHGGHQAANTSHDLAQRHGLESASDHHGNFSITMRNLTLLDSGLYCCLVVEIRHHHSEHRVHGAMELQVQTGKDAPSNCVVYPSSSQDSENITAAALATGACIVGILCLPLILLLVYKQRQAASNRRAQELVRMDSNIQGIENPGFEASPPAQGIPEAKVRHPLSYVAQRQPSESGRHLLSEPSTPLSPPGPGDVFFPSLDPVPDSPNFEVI
The experiment in a line: flow cytometry, AF488-labelled antibody on CD14+ monocytes of human PBMC, MFI normalised to INX200 at t=0.

Data set [2] deals with CD163 on human blood cells (human) (UniProt Q86VB7). In words: flow cytometry, AF647-labelled antibody, bead-calibrated; CD14+ monocytes, human PBMC, n=5 donors, mean±SD.
Chain of CD163 on human blood cells (human) (Q86VB7 42-1156): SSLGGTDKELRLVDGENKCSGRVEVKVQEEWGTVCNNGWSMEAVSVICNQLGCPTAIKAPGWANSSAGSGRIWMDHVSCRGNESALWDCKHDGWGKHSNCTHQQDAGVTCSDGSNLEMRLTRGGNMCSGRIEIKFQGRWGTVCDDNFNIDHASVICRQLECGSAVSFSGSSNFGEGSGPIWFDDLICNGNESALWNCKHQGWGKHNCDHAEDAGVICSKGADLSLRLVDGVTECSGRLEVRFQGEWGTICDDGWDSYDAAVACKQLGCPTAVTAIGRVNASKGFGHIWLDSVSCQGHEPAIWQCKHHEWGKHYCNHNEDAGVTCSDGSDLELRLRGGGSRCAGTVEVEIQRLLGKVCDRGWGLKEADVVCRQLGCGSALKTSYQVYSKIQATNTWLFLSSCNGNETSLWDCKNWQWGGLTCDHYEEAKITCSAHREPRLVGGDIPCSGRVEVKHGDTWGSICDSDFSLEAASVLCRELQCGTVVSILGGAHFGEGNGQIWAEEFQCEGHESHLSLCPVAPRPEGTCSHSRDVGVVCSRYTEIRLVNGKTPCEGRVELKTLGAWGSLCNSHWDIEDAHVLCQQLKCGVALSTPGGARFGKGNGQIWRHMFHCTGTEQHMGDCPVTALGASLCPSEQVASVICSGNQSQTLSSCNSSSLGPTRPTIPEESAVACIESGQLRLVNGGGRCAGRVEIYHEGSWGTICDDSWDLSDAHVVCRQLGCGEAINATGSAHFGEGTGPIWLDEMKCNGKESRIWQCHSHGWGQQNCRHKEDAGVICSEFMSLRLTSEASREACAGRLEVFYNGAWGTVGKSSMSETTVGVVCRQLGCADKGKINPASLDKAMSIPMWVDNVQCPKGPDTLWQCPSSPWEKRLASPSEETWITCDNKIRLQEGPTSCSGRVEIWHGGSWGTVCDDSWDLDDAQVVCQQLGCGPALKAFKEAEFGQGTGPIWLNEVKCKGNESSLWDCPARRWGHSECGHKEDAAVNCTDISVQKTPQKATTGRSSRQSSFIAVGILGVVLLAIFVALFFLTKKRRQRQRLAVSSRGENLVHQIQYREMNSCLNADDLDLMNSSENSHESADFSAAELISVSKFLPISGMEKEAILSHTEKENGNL
Data set [3] shares this target. In words: flow cytometry, AF647-labelled antibody, bead-calibrated; CD14+ monocytes, human whole blood, n=3 donors, mean±SD.
Data set [4] is described as follows: Payload accumulation in cynomolgus tissues (LC-MS/MS). The note with it: single i.v.; INX234P 10 mg/kg, dexamethasone 2 mg/kg.
The subject of data set [5] is transferred naïve CD4 T cells from hVISTA KI mice. In words: T cell transfer colitis model. In kind it is in vivo, Rag1-/- mice. As for the experimental part: After >21 days, animals slowly start to lose weight and decreases in circulating naïve T cells are observed. In this model, the ADC targets only the transferred cells while the free GC can act on both transferred and host cells.
In EXPERIMENT 1, mice were treated with INX234P at 10 mg/Kg starting on day 0 and then once a week. […] In EXPERIMENT 1 treatment was initiated on day 0 (prophylactic) and terminated on day 61, whereas in EXPERIMENT 2 treatment was initiated on day 21 (or therapeutic) and remains ongoing at the time of this filing.
In both experiments, all treatments were administered once a week.
For EXPERIMENT 1, INX234P treatment was initiated on day 0 (or prophylactic) after naïve CD4 T cell transfer and terminated on day 61.
Naïve CD4 T cells were isolated from hVISTA KI spleen using an EasySep™ Mouse Naïve CD4+ T cell Isolation kit from StemCell (catalog #19765) following manufacturer instruction.
Following the protocol of Ostanin et al (2008), […] naïve CD45RB+, CD4+ T cells were injected i.p. on day 0
10 ml of antibody cocktail (see table on the right) was directly added to […] of blood. After 30 min incubation at room temperature (RT), 600 ml BD FACS lysis buffer was added to the sample. After 30 min incubation at RT, samples were spun at 550 rcf for 5 min, washed once in PBS, and then resuspended in a fixed volume of PBS. […]

Data set [6] is described as follows: Plasma corticosterone after repeated treatment. Conditions: Dex 2 or 0.2 mg/Kg daily for 4 days; INX201J 10 or 3 mg/Kg (0.2 or 0.06 mg/Kg of payload) on days 1, 3 and 4. In kind it is in vivo, hVISTA KI mice. How it is done:
On day 5, mice were bled and their corticosterone levels assessed by ELISA.
The experiment was performed in female hVISTA KI mice. […] A control group was included that received daily PBS injections. On day 5, mice were bled and their plasma corticosterone levels assessed by ELISA.
The ELISA was conducted following the manufacturer's included protocol using Arbor Assays (cat #K014-H5) Corticosterone 5 pack ELISA Kit.

The test system of data set [7] is steroid responsive genes in bone (Fkpb5, RANKL, ddit4, Fam107a). In words: Steroid responsive gene transcription in bone (RNAseq). In kind it is in vivo, mouse. Conditions: Dex 2 mg/Kg i.p., 2h. From the text:
In the figure Fkpb5 is shown on the left, RANKL the middle left, ddit4 the middle right and Fam107a on the extreme right.

Data set [8] deals with steroid responsive genes in bone. In words: RNAseq of mouse bones after treatment. Conditions: INX231P 10 mg/Kg i.p. 20h (hVISTA KI); Dex 2 mg/Kg 2h (C57BI/6).
Data set [9] has as its target T1, human VISTA on cells. In words: cell-based or functional assay.
Data set [10] deals with T2, hIX50 (human VISTA ECD, produced at Aragen Bioscience) (human, UniProt Q9H7M9 33-194, biotinylated in the pH ELISA (sites not given)).
T2 construct: also called hINX50; soluble VISTA
T2 sequence: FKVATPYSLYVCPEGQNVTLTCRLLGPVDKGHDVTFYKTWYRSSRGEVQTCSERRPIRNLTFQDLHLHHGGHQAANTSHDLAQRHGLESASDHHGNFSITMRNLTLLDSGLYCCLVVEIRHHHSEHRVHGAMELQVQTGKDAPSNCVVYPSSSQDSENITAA
The experiment in a line: ELISA: hIX50 coated at 1 ug/mL; antibody titrated in PBS/Tween/BSA; mouse anti-human kappa-HRP/TMB; OD 450 nm.

Data set [11] deals with T2, hIX50 (human VISTA ECD, produced at …). In words: ELISA at pH 7.5: INX200 coated at 1 ug/mL; biotinylated hIX50 titrated at 0.001-1000 ng/mL; streptavidin-HRP/TMB; OD 450 nm. The value is a concentration of hIX50.

In the case of Human IgG1si (antibody), in data set [1], the nonspecific signal at 0 min relative to INX200 (MFI, percent) was 5.9%.

For “CD163 Alexa Fluor 647 clone GHI/61 (BioLegend) (antibody)”, the antibody binding capacity (ABC) (ABC (molecules per cell)) in data set [2] is 36700; in data set [3], 13100.

Take `C[C@@H]1C[C@H]2[C@@H]3CCC4=CC(=O)C=C[C@]4(C)[C@@]3(F)[C@@H](O)C[C@]2(C)[C@@]1(O)C(=O)CO` [Dex, dexamethasone]: in data set [4], the “accumulated compound in tissues at 24h (ng of compound/g of tissue)” value is “little accumulated free dexamethasone at 24h in any tissue”. The “mice that had to be sacrificed” value in [5] (EXPERIMENT 1: high Dex (2 mg/Kg), 2 out of 10) is 20%. The molecule also showed a median survival in data set [5] (EXPERIMENT 1: once a week day 0 to day 61, unconjugated INX234 10 mg/Kg, low Dex 0.2 mg/Kg) of 72.5 days. Also, the “basal plasma corticosterone levels on day 5” value in [6] is reported as “Dex at 2 mg/Kg dramatically decreased basal corticosterone levels; also recorded: only limited though significant impact at 0.2 mg/Kg”. Besides, the “impact on steroid responsive genes in bone” value in [7] is “significantly impacted”. Besides, the “FKBP5 in bone (RNAseq)” value in [8] is “robust FKBP5 induction”.

B1: INX201J (other)
VH: QVQLVQSGAEVKKPGASVKVSCKASGYTFANYLIGWVRQAPGQRLEWMGDIYPGGGFISYNEKFKGRVTITRDTSASTAYMELSSLRSEDTAVYYCARRFDYGGYFFDYWGQGTLVTVSS
VL: DIVMTQSPLSLPVTPGEPASISCRSSQSIVHSNGNIYLEWYLQKPGQSPQLLIYKVSNRFSGVPDRFSGSGSGTDFTLKISRVEAEDVGVYYCFQGSHVPWTFGQGTKLEIK
modifications: linker/payload INX J on the interchain disulfide cysteines; linker/payload INX J (protease sensitive linker, budesonide analog INX J-2) on the interchain disulfide cysteines, DAR 8.0
For the molecule B1, the “FKBP5 transcription (qRT-PCR) in isolated human Tregs, 20 nM payload, against conjugated isotype control” value in data set [9] is 2.1 fold.

B2: INX200 (antibody, human IgG1, V domains shown)
VH: B1 VH
VL: B1 VL
notes: also called humanized anti-human VISTA antibody on a human IgG1/kappa backbone with L234A/L235A silencing mutations
In the case of B2, the 50% effective concentration (EC50 (read off the curve)) is about 8 ng/mL in [10] and about 0.7 ng/mL in data set [11].
